From patent US20170209558A1

Experiments:
[1] = biological target: Basigin (residues 22-205) (UniProt P35613); assay: SPR, RH5ΔNL (8 to 0.0625 µM) injected over immobilized basigin, 1:1 binding model; RH5ΔNL fragment (residues 140-526 lacking 248-296)
[2] = biological target: Basigin (residues 22-205) (UniProt P35613); assay: not stated; given for comparison with the SPR value of RH5ΔNL; full-length RH5 (FLRH5)

| Substance | Kd [1] [µM] | Kd [2] [µM] |
| --- | --- | --- |
| RH5ΔNL (PfRH5 fragment, 7G8 strain, residues 140-526 lacking residues 248-296, C-terminal hexa-histidine tag) (from UniProt Q8IFM5 140-526) (ligand) | 1.3 | – |
| full-length PfRH5 (7G8 strain), recombinant, C-terminal hexa-histidine tag (from UniProt Q8IFM5 24-526) (ligand) | – | 1.1 |
